Positions count from the first letter of the chain named. Names may count otherwise. Each block holds one binder with its values, some of them ahead of it.
Target: T1, 14-3-3 protein, Q5ZKC9
T1 chain: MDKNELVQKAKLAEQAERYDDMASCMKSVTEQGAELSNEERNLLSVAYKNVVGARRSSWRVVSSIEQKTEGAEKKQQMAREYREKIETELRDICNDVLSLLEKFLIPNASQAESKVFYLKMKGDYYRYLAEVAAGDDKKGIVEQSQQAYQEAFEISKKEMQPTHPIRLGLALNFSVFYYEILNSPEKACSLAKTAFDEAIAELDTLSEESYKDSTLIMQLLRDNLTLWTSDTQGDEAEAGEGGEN
Assay: co-immunoprecipitation (IP FOXO1, WB 14-3-3), band quantification
Details: chain shown with the change; chicken granulosa cells, with 740-Y-P; n = 3; parent: est. 3.7; read off a plot

- response: 3.7
B1: chicken forkhead box O1 (FOXO1) wild-type, A0A8V0XGP1 S311A (protein)
chain: MAEAPQLVDIDPDFEPLPRPRSCTWPLPRPEFNPPSSATSSPAPSCGGQPDGAAAAGAAVAVAASGALSADFISNLCLVEESEDFALPPAAAAPPESAACRCGDFSAPEAGCRLHPPGPPPVPPVPPAVAALSPGPVAGQPRKSSSSRRNAWGNLSYADLITKAIESSPEKRLTLSQIYEWMVKSVPYFKDKGDSNSSAGWKNSIRHNLSLHSKFIRVQNEGTGKSSWWMLNPEGGKSGKSPRRRAASMDNNSKFAKSRGRAAKKKASLQSGQEGNGDSPGSQFSKWPASPSSHSNDDFDNWSTFRPRTSANASTISGRLSPILPEQDDLGDGDVHSMVYPSSATKMTSTLPSLSEMSSSENMENLLDNLNLLSPNTSMTVSTQSSSAALMQQTPGYSFASSTTSICSPNPDYRKFTYAQASMNSLPQIPMQTLQDSKSSYGSMSQFNCPAGLLKELLTSDSPPHNDILASVDTGVSQAGGRALGQGVLMVTNSVMPTYGNQPPHNKMMNPNARPHQGHNQPTPAVNGRALSHTVNPMSHTSCLNRLSTVKTSLQVPMSHQMQMNAMNPYAPVNSCNGYGRVGIVSLHQEKLPSDLDDMLIERLDCDMESIIRNDLMDGETLDFNFDSVLPNQSFQHSVKTTTHSWVSG

- response: 2.7
B2: chicken forkhead box O1 (FOXO1) wild-type, A0A8V0XGP1 S248A (protein)
chain: B1 chain with S248A, A311S
